In IntAct's records for PubMed 16203728:

B1: Erbin (Homo sapiens), Q96RT1-2 (parent)
chain: MTTKRSLFVRLVPCRCLRGEEETVTTLDYSHCSLEQVPKEIFTFEKTLEELYLDANQIEELPKQLFNCQSLHKLSLPDNDLTTLPASIANLINLRELDVSKNGIQEFPENIKNCKVLTIVEASVNPISKLPDGFSQLLNLTQLYLNDAFLEFLPANFGRLTKLQILELRENQLKMLPKTMNRLTQLERLDLGSNEFTEVPEVLEQLSGLKEFWMDANRLTFIPGFIGSLKQLTYLDVSKNNIEMVEEGISTCENLQDLLLSSNSLQQLPETIGSLKNITTLKIDENQLMYLPDSIGGLISVEELDCSFNEVEALPSSIGQLTNLRTFAADHNYLQQLPPEIGSWKNITVLFLHSNKLETLPEEMGDMQKLKVINLSDNRLKNLPFSFTKLQQLTAMWLSDNQSKPLIPLQKETDSETQKMVLTNYMFPQQPRTEDVMFISDNESFNPSLWEEQRKQRAQVAFECDEDKDEREAPPREGNLKRYPTPYPDELKNMVKTVQTIVHRLKDEETNEDSGRDLKPHEDQQDINKDVGVKTSESTTTVKSKVDEREKYMIGNSVQKISEPEAEISPGSLPVTANMKASENLKHIVNHDDVFEESEELSSDEEMKMAEMRPPLIETSINQPKVVALSNNKKDDTKETDSLSDEVTHNSNQNNSNCSSPSRMSDSVSLNTDSSQDTSLCSPVKQTHIDINSKIRQEDENFNSLLQNGDILNSSTEEKFKAHDKKDFNLPEYDLNVEERLVLIEKSVDSTATADDTHKLDHINMNLNKLITNDTFQPEIMERSKTQDIVLGTSFLSINSKEETEHLENGNKYPNLESVNKVNGHSEETSQSPNRTEPHDSDCSVDLGISKSTEDLSPQKSGPVGSVVKSHSITNMEIGGLKIYDILSDNGPQQPSTTVKITSAVDGKNIVRSKSATLLYDQPLQVFTGSSSSSDLISGTKAIFKFDSNHNPEEPNIIRGPTSGPQSAPQIYGPPQYNIQYSSSAAVKDTLWHSKQNPQIDHASFPPQLLPRSESTENQSYAKHSANMNFSNHNNVRANTAYHLHQRLGPARHGEMWAISPNDRLIPAVTRSTIQRQSSVSSTASVNLGDPGSTRRAQIPEGDYLSYREFHSAGRTPPMMPGSQRPLSARTYSIDGPNASRPQSARPSINEIPERTMSVSDFNYSRTSPSKRPNARVGSEHSLLDPPGKSKVPRDWREQVLRHIEAKKLEKMPLSNGQMGQPLRPQANYSQIHHPPQASVARHPSREQLIDYLMLKVAHQPPYTQPHCSPRQGHELAKQEIRVRVEKDPELGFSISGGVGGRGNPFRPDDDGIFVTRVQPEGPASKLLQPGDKIIQANGYSFINIEHGQAVSLLKTFQNTVELIIVREVSS

Variants of: B1
Details: with nod2_human NOD2, Q9HC29
Sequence of nod2_human NOD2, Q9HC29 (Q9HC29 whole entry): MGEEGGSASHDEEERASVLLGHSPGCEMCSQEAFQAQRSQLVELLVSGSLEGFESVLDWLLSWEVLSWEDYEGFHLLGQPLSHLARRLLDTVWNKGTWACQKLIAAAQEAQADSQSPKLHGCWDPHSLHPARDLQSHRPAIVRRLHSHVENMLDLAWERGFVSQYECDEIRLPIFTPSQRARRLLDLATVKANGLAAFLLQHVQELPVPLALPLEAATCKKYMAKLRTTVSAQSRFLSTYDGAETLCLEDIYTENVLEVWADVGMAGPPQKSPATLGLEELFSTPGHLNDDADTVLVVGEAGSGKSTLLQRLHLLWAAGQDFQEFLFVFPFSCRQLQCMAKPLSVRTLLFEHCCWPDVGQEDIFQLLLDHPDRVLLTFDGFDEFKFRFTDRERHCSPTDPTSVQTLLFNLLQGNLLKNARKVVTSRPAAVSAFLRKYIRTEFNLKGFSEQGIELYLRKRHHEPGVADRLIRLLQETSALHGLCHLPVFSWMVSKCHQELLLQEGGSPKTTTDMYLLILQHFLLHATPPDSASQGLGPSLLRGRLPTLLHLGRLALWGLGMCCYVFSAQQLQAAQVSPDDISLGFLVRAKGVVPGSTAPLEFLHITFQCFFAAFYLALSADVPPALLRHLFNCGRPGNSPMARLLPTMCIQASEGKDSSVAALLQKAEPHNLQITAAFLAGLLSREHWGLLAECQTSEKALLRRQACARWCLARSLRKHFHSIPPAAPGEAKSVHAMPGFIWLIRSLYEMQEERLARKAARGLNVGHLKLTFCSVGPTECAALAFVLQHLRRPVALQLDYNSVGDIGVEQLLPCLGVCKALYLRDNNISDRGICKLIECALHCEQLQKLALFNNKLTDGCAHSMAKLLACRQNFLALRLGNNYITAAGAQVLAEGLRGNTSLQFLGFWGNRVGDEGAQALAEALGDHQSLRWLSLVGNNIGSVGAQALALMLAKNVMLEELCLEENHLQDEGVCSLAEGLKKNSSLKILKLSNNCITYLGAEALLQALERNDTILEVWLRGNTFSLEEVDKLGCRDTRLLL

effect of a mutation on the interaction | Variant
decreasing interaction | P315L
